Drawing on patent publication US20080311122A1, “Antagonists of Hmgb1 and/or Rage and Methods of Use Thereof” (Medimmune, LLC, priority 2005, published 2008), this text covers IFN-a release from mouse bone marrow cells, HMGB/CpG-A mediated enhanced TLR9 signaling and decrease in IFIT1 mRNA in human PBMC stimulated with 20% lupus plasma for one substance.

The target in test [1] is HMG1 purified from bovine (calf) thymus (bovine) (UniProt P10103). The test can be described thus: cell-based or functional assay.
Test [2] deals with HMGB1 in DNA immune complexes of human lupus plasma (human) (UniProt P09429). Kind of test: cell-based or functional assay.
HMGB1 in DNA immune complexes of human lupus plasma (human), sequence (P09429 whole entry, one chain of several): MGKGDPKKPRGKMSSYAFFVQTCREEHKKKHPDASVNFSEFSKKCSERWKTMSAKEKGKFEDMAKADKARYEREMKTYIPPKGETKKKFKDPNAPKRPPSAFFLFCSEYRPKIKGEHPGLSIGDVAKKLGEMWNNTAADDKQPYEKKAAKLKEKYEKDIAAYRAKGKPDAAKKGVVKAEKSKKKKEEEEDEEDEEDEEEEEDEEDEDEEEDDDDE

HMG1 purified from bovine (calf) thymus (bovine), sequence (P10103 2-215 limits assumed): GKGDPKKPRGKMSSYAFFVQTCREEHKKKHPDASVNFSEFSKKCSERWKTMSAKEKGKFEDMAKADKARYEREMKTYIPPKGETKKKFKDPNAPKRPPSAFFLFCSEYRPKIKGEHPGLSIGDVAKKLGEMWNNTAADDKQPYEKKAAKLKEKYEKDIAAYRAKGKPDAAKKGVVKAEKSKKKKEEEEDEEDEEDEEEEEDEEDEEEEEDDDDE

As for “RAGE-Fc fusion protein (species not stated)”, the IFN-a release from mouse bone marrow cells, HMGB/CpG-A mediated enhanced TLR9 signaling in test [1] was above 95%. In test [2], this substance gave a decrease in IFIT1 mRNA in human PBMC stimulated with 20% lupus plasma of 75%.
